Biological target: T1, recombinant ApoE3 (human, UniProt P02649 19-317)
T1 construct: Apolipoprotein E, isoform ApoE3; also called apolipoprotein E3; source: bought: BioVision
Assay: AlphaScreen or HTRF; AlphaLISA: ApoE2, 3 or 4 (0-100 nM) with biotinylated CLCF1 (10 nM) in PBS 0.1% BSA, rat anti-ApoE IgG (3 nM), anti-rat IgG acceptor beads, streptavidin donor beads; also with ApoE (30 nM) preincubated with DMPC (0-1000 uM) 1 h at 37 °C
Conditions: both partners purified

T1 sequence (P02649 19-317): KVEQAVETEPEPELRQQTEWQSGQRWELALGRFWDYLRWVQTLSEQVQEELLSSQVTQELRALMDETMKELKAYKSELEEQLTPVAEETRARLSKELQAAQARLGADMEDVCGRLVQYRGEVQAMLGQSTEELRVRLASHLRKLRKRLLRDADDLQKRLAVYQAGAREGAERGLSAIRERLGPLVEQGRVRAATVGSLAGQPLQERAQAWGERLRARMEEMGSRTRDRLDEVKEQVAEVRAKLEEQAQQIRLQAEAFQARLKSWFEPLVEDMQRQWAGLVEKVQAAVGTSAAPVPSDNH

binding result: binds
B1: biotinylated human CLCF1 (cardiotrophin-like cytokine factor 1) (ligand, UniProt Q9UBD9 28-225, looked up)
chain: LNRTGDPGPGPSIQKTYDLTRYLEHQLRSLAGTYLNYLGPPFNEPDFNPPRLGAETLPRATVDLEVWRSLNDKLRLTQNYEAYSHLLCYLRGLNRQAATAELRRSLAHFCTSLQGLLGSIAGVMAALGYPLPQPLPGTEPTWTPGPAHSDFLQKMDDFWLLKELQTWLWRSAKDFNRLKKKMQPPAAAVTLHLGAHGF
modifications: biotin on the Avitag (BirA biotin-ligase)
notes: Cardiotrophin-like cytokine factor 1 (CLCF1), human, mature protein, codon optimized synthetic cDNA in pET24d; also called biotinylated hCLCF1; hCLC biot
